{"source": "patent US20220306768A1", "about": "“REDIRECTING DEATH-INDUCING SIGNAL COMPLEX (DISC) BY MODIFYING DEATH RECEPTOR AGONIST TO INDUCE CELL DEATH FOR CANCER TREATMENT” (CITY OF HOPE, priority 2021, published 2022)", "molecules": {"B1": {"name": "TAT-TRAIL: fusion protein: TRAIL component fused to a 9-amino acid TAT peptide (RKKRRQRRR, SEQ ID NO:2); e.g. poly-His-TAT-hTRAIL94-281 (SEQ ID NO:3) (protein)", "chain": "HHHHHHRKKRRQRRRRTSEETISTVQEKQQNISPLVRERGPQRVAAHITGTRGRSNTLSSPNSKNEKALGRKINSWESSRSGHSFLSNLHLRNGELVIHEKGFYYIYSQTYFRFQEEIKENTKNDKQMVQYIYKYTSYPDPILLMKSARNSCWSKDAEYGLYSIYQGGIFELKENDRIFVSVTNEHLIDMDHEASFFGAFLVG", "modifications": "TAT-TRAIL"}, "B2": {"name": "parental TRAIL: His-tagged parental TRAIL construct without TAT peptide, used as comparator (protein, UniProt P50591 39-281, looked up)", "extracellular domain": "TNELKQMQDKYSKSGIACFLKEDDSYWDPNDEESMNSPCWQVKWQLRQLVRKMILRTSEETISTVQEKQQNISPLVRERGPQRVAAHITGTRGRSNTLSSPNSKNEKALGRKINSWESSRSGHSFLSNLHLRNGELVIHEKGFYYIYSQTYFRFQEEIKENTKNDKQMVQYIYKYTSYPDPILLMKSARNSCWSKDAEYGLYSIYQGGIFELKENDRIFVSVTNEHLIDMDHEASFFGAFLVG", "modifications": "extracellular domain His tag", "notes": "His-tagged parental TRAIL construct without TAT peptide, used as comparator"}}, "key": {"[1]": {"settings": "phase I studies (Herbst et al., 2010); cited from earlier work"}, "Hep3B cell line": {"tested_on": "Hep3B cell line", "experiment": "Cell viability in the Hep3B cell line (FIG. 9)", "type": "cell-based", "settings": "after 48 hours"}, "OVCAR3 cells": {"tested_on": "OVCAR3 cells", "experiment": "Ovarian cancer xenograft model OVCAR3, implanted intraperitoneally", "type": "in vivo", "settings": "intraperitoneal implant, preliminary data, FIG. 6", "method": "(§1) In vivo testing was performed using ovarian cancer xenograft models, OVCAR3 and A2780, implanted intraperitoneally."}, "cancer cell lines": {"tested_on": "cancer cell lines", "experiment": "Cell death induction in cancer cell lines (Example 1)", "type": "cell-based", "text": "Redirecting TRAIL-induced signaling away from lysosomal degradation induced massive cell death and overcame TRAIL resistance. This was done by fusing bioactive protein transduction domains (PTD—or CPPs) and signaling peptides, such as TAT peptide from HIV TAT protein, NLS (nuclear localization signal), MTS (mitochondrial targeting sequence), with TRAIL to construct a series of new TRAILs, as shown in FIG. 7."}, "[2]": {"tested_on": "NCI 60-cancer cell panel (60 different human cancer cell lines)", "experiment": "NCI 60-cancer cell panel, cell death", "type": "cell-based", "method": "TAT-TRAIL was tested in an NCI 60-cancer cell panel, which included 60 different human cancer cell lines set up by the National Cancer Institute for cancer therapeutics screening. Among the 60 cell lines of various cancer types, 33 were sensitive to parental TRAIL, but 27 were resistant."}, "[3]": {"tested_on": "TRAIL-sensitive cancer cell lines", "experiment": "Caspase activity in cancer cell lines (FIG. 8)", "type": "cell-based", "text": "Of the 60 NCI cancer cell lines, 33 TRAIL-sensitive cells lines become more sensitive to TAT-TRAIL, while 17 of TRAIL-resistant cell lines become sensitive to TAT-TRAIL, only 10 cell lines remain resistant."}, "A2780 cells": {"tested_on": "A2780 cells", "experiment": "Ovarian cancer xenograft model A2780, implanted intraperitoneally", "type": "in vivo", "settings": "intraperitoneal implant, preliminary data, FIG. 6", "method": "as §1"}, "[4]": {"settings": "of the 60 NCI cancer cell lines"}, "[5]": {"settings": "among the 60 cell lines of various cancer types"}}, "note": "“Also recorded” adds a separate entry of the source.", "data": [{"molecule": "recombinant human TRAIL: recombinant human tumor necrosis factor-related apoptosis-inducing ligand tested in clinical studies", "values": [{"measurement": "tolerability", "setting": "[1]", "value": "well tolerated"}]}, {"molecule": "B1", "values": [{"measurement": "IC50 (cell viability)", "setting": "Hep3B cell line", "value": "low"}, {"measurement": "potency as compared to the His-tagged parental TRAIL", "setting": "Hep3B cell line", "value": "approximately sixty times greater potency"}, {"measurement": "antitumor effects", "setting": "OVCAR3 cells", "value": "notable antitumor effects; also recorded: remarkable antitumor effects"}, {"measurement": "cell death in TRAIL-resistant cancer cells", "setting": "cancer cell lines; TRAIL-resistant cancer cells", "value": "induced massive cell death in TRAIL-resistant cancer cells"}, {"measurement": "time to induce cell death", "setting": "cancer cell lines; cancer cell lines", "value": "less than 1 hour"}, {"measurement": "potency in inducing cell death, cancer cells versus normal cells", "setting": "cancer cell lines; cancer cells and normal cells", "value": "remarkable high potency in inducing cell death in cancer cells but not normal cells"}, {"measurement": "cell death in TRAIL-sensitive cell lines compared with His-tagged parental TRAIL construct", "setting": "[2]; TRAIL-sensitive cell lines (33 of 60), FIG. 5", "value": "faster and massive cell death in all 33 TRAIL-sensitive cell lines"}, {"measurement": "increase of potency over parental TRAIL", "setting": "[2]; cell lines resistant to parental TRAIL", "value": "up to a hundred times"}, {"measurement": "number of TRAIL-sensitive cell lines that become more sensitive", "setting": "[2]; [4]", "value": 33}, {"measurement": "number of cell lines that remain resistant", "setting": "[2]; [4]", "value": 10}, {"measurement": "number of TRAIL-resistant cell lines in which effective cell death was executed (become sensitive)", "setting": "[2]; out of the 27 cell lines resistant to parental TRAIL", "value": 17}, {"measurement": "caspase activity compared to control and His-tagged parental TRAIL", "setting": "[3]", "value": "higher caspase activity"}, {"measurement": "antitumor effects", "setting": "A2780 cells", "value": "notable antitumor effects; also recorded: remarkable antitumor effects"}]}, {"molecule": "B2", "values": [{"measurement": "number of cell lines resistant to the agent", "setting": "[2]; [5]", "value": 27}, {"measurement": "number of cell lines sensitive to the agent", "setting": "[2]; [5]", "value": 33}]}]}
